Measurements as given in US20230174641A1 (H LUNDBECK A S, published 2023).

T1: human ACTH 18-39 (human)
T1 construct: also called CLIP; CLIP (ACTH 18-39)
T1 peptide: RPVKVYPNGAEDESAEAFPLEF


Target: T1, human ACTH 18-39
Assay: SPR ProteOn, antibody immobilised
Experimental: Antibody was immobilized to the surface of general amine coupling (GLC or GLM) Chips (Bio-Rad). […] At the chosen concentrations of antigen (ranging from 454 ng/ml to 5.6 ng/ml) association times of 200 seconds and dissociation times of 30-200 minutes were used with the ProteOnTM Manager Software (v3.1.0.6, Bio-Rad) to group and fit data using a 1:1 Langmuir binding model. Surfaces were regenerated between analyte queries using 10 mM glycine at pH 2.0. Data repeated across a single density was averaged and a single KD and standard propagation of error calculated for each antibody.

| Binder | Kd [nM] |
| --- | --- |
| Ab2.H (antibody, human IgG1, kappa, N297A, V domains shown, humanized form of Ab2) VH: EVQLVESGGGLVQPGGSLRLSCAASGFTVSKYDMIWVRQAPGKGLESIGIIYDDGDTYYASSAKGRFTISRDNSKNTLYLQMNSLRAEDTAVYYCVKGVSNIWGQGTLVTVSS VL: DIQMTQSPSTLSASVGDRVTITCQASQSISNYLAWYQQKPGKAPKLLIYSASTLASGVPSRFSGSGSGTEFTLTISSLQPDDFATYYCQSYEGSSSSSYGVGFGGGTKVEIKR | 28 |
| Ab1.H (antibody, human IgG1, kappa, N297A, V domains shown, humanized form of Ab1) VH: EVQLVESGGGLVQPGGSLRLSCAASGFTVSNYDMIWVRQAPGKGLESIGMIYDDGDTYYASSAKGRFTISRDNSKNTLYLQMNSLRAEDTAVYYCVKGVSNHWGQGTLVTVSS VL: DIQMTQSPSTLSASVGDRVTITCQASQSISSYLAWYQQKPGKAPKLLIYSASTLASGVPSRFSGSGSGTEFTLTISSLQPDDFATYYCQSYDGSSGSSYGVGFGGGTKVEIKR | 20 |
| Ab4.H (antibody, human IgG1, kappa, N297A, V domains shown, humanized form of Ab4) VH: EVQLVESGGGLVQPGGSLRLSCAASGFTVSKHDMIWVRQAPGKGLESIGIIYDDGDTYYANSAKGRFTISRDNSKNTLYLQMNSLRAEDTAVYYCVKGVSNIWGQGTLVTVSS VL: DIQMTQSPSTLSASVGDRVTITCRASQSISVYLAWYQQKPGKAPKLLIYQASKLASGVPSRFSGSGSGTEFTLTISSLQPDDFATYYCQSYDGSSSSSYGVGFGGGTKVEIKR | 92 |
| Ab10.H (antibody, human IgG1, kappa, N297A, V domains shown, humanized form of Ab10) VH: EVQLVESGGGLVQPGGSLRLSCAASGFTVSSADMIWVRQAPGKGLESIGMIYDDGDTYYATSAKGRFTISRDNSKNTLYLQMNSLRAEDTAVYYCVKGVSSVWGQGTLVTVSS VL: DIQMTQSPSTLSASVGDRVTITCQASENIYRSLAWYQQKPGKAPKLLIYSASTLASGVPSRFSGSGSGTEFTLTISSLQPDDFATYYCQSYDGSSSSSYGVGFGGGTKVEIKR | 13 |
| Ab11.H (antibody, human IgG1, kappa, N297A, V domains shown, humanized form of Ab11) VH: EVQLVESGGGLVQPGGSLRLSCAASGFTVSAYDILWVRQAPGKGLESIGMMYDDGDTYYATSAKGRFTISRDNSKNTLYLQMNSLRAEDTAVYYCVKGVSNIWGQGTLVTVSS VL: DIQMTQSPSTLSASVGDRVTITCQASQSIDSSLAWYQQKPGKAPKLLIYSASTLASGVPSRFSGSGSGTEFTLTISSLQPDDFATYYCQSYDGSSSSYYGIGFGGGTKVEIKR | 20 |
| Ab12.H (antibody, human IgG1, kappa, N297A, V domains shown, humanized form of Ab12) VH: not shown VL: DIQMTQSPSTLSASVGDRVTITCQASQSIGSSLAWYQQKPGKAPKLLIYAASTLASGVPSRFSGSGSGTEFTLTISSLQPDDFATYYCQSYDGSSSSSYGVGFGGGTKVEIKR | 8.8 |
| Ab11A.H (antibody, human IgG1, kappa, N297A, V domains shown) VH: EVQLVESGGGLVQPGGSLRLSCAASGFTVSAYDILWVRQAPGKGLESIGMMYDDGDTYYATSAKGRFTISRDNSKNTLYLQMNSLRAEDTAVYYCVKGVSNIWGQGTLVTVSS VL: DIQMTQSPSTLSASVGDRVTITCQASQSIGSSLAWYQQKPGKAPKLLIYSASTLASGVPSRFSGSGSGTEFTLTISSLQPDDFATYYCQSYEGSSSSYYGIGFGGGTKVEIKR | 20 |
